From the supplement of paper PMC7125110
± gives the standard error. Fewer inactive variants are shown than the library holds.

B1: glmS ribozyme (parent)
chain: AUAAAAGCGCCAGAACUACAGAAAUGUAGUUGACGAGGAGGAGGUUUAUCGAAUUUUCGGCGGAUGCCUCCAAA

Variants of: B1
Experiment: self-cleavage kobs at 2500 uM GlcN6P; higher = faster cleavage; RNA array
Settings: with glucosamine-6-phosphate
Method in brief: (§1)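 Tracking of barcoded ribozyme variants used a hybridised Cy3 probe at 37 °C, after in situ transcription by E. coli RNA polymerase on sequenced MiSeq chips. The flowed solution held 40 μM to 10 mM glucosamine-6-phosphate in HEPES/KCl/Mg(OAc)2 buffer, and imaging ran over ~14 h. kobs was taken from exponential decay fits of normalised per-tile medians, and kcat and KM from weighted Michaelis–Menten fits.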

Question: For AUAAAAGCGCCAGAACUACAGAAAUGUAGUUGACGAGGAGGAGAUUUACCGAAUUUUCGGCGGAUGCCUCCAAA, which “self-cleavage kobs at 2500 uM GlcN6P” value is on record?
Answer: Its value is less than 1e-05 s⁻¹.

Question: AUAAAAGCGCCAGAACUACAGAAAUGUAAUUGACGAGGAGGCGGUUUAUCGAAUUUUCGGCGGUUGCCUCCAAA was tested. Which “self-cleavage kobs at 2500 uM GlcN6P” value did it give?
Answer: The value was less than 1e-05 s⁻¹.

Question: AUAAAAGCGCCAGAGCUACAGAAAUGUAGUUGACGAGGAGGAGGUUUAUCGAAUUUUCCUCGGAUGCCUCCAAA was tested. Which “self-cleavage kobs at 2500 uM GlcN6P” value did it give?
Answer: The value was less than 1e-05 s⁻¹.

Question: For AUAAAAUCGUCAGAACUACAGAAAUGUAGUUGACGUGGAGGAGUUUUAUCGAAAUUUCGGCGGAUGCCUCCAAA, which “self-cleavage kobs at 2500 uM GlcN6P” value is on record?
Answer: Its value is less than 1e-05 s⁻¹.

Question: With AUAAAAGCGCCAGAACUACAGAAAUGUAGAUGUCGAGGAGGAGGUUUAUCGAAUUUUGGGCGGAUGCCCCCAAA as the variant, how does the “self-cleavage kobs at 2500 uM GlcN6P” value read?
Answer: Its value is 0.000281 ± 8.6e-05 s⁻¹.

Question: For AUAAAAGCGCAAGAACUACAGAAAUGUAGUUGACGAGGACGAGGUUUAUCGAAUUUUCGGCAGAUGCUUCCAAA, which “self-cleavage kobs at 2500 uM GlcN6P” value is on record?
Answer: Its value is less than 1e-05 s⁻¹.

Question: How did the “self-cleavage kobs at 2500 uM GlcN6P” value turn out when AUAAAAGCGCUAGAACUACAGAAAUGUAGGUGACGAGGAGGAGGUUUAUCGAAUUUUCGGCGGAUGCGUCCAAA was run?
Answer: Its value is less than 1e-05 s⁻¹.

Question: Which “self-cleavage kobs at 2500 uM GlcN6P” value does the source give for AUAAAAGCGCCAGAACUACAGAAAUGUAGUUGACGUGGAGGAGAUUUCUCGAAUUUCCGGCGGAUGCCUCCAAA here?
Answer: Its value is less than 1e-05 s⁻¹.

Question: Which “self-cleavage kobs at 2500 uM GlcN6P” value does the source give for AUAAAAGCUCCAGAACUACAGAAAUGUAGUUGACAGGGAGGAGGUUUAUCGAAUUUUCGGCGUAUGCCUCCAAA here?
Answer: Its value is less than 1e-05 s⁻¹.

Question: How did the “self-cleavage kobs at 2500 uM GlcN6P” value turn out when AUAAAAGCGCCAGAACUACAGAAAUGUAGUUGACGAGGGGGCAGUUUAUCGAAUUUUCGGCGGAUGCCUCCAAA was run?
Answer: Its value is less than 1e-05 s⁻¹.

Question: For AUAAAGGCGCCAGAACUACAGAAAUGUAAUUGACGAGGAGGAGGUUUAUGGAAUUUUCGGCGGAUGCCUCCAAA, which “self-cleavage kobs at 2500 uM GlcN6P” value is on record?
Answer: Its value is 0.000103 ± 3.9e-05 s⁻¹.

Question: AUAAAAGCGCAAGAACUACAGAAAUGUAGUUGACGAGGAGGAGGUUUAGCGAAUUUUCGGCGGAUGCCUCCAAA was tested. Which “self-cleavage kobs at 2500 uM GlcN6P” value did it give?
Answer: Its value is less than 1e-05 s⁻¹.

Question: How did the “self-cleavage kobs at 2500 uM GlcN6P” value turn out when AUAAAAACGCCAGAACUACAGAAAUGUAGUUGACGUGGAGGAGGUGUCUCGAAUUUUCGGCGGAUGCCUUGAAA was run?
Answer: The value was less than 1e-05 s⁻¹.

Question: How did the “self-cleavage kobs at 2500 uM GlcN6P” value turn out when AUAAAAGCGCCAGUAAUACAGAAAUGUAGUUGACGAGGAGGAGGUUUAUCGAAUUUUCGGCGAAUGCCUCCAAA was run?
Answer: Its value is less than 1e-05 s⁻¹.

Question: AUAAAAGCGCCAGAUCUACAGAAAUGUAGUUGACUAGGAGGAGGUUUCUCGAAUUUUCGGCGGUUGCCUCCAAA was tested. Which “self-cleavage kobs at 2500 uM GlcN6P” value did it give?
Answer: Its value is less than 1e-05 s⁻¹.

Question: Which “self-cleavage kobs at 2500 uM GlcN6P” value does the source give for AUAAAAGCGCCUGAACUACAGAAAUGUAGUUGACGAGGAGGAGGUUUAUCGAAAUUUUGGCGGAUGCCUCCAAA here?
Answer: Its value is 4.04e-05 ± 1.6e-05 s⁻¹.

Question: With AUAAAAGCGCCAGAACUACAGAAAUGUACUUGACGAGGAGGAGGUUUUUCGAAUUUUCGCCGGAUGCCUCCAAA as the variant, how does the “self-cleavage kobs at 2500 uM GlcN6P” value read?
Answer: Its value is less than 1e-05 s⁻¹.

Question: How did the “self-cleavage kobs at 2500 uM GlcN6P” value turn out when AUAAAAGCGCCAGCACUACAGAAAUGUAGUUGACGACGAGGAGGUUUAUCGAAUUUUCGGCCGAUGCCUCCAAA was run?
Answer: Its value is less than 1e-05 s⁻¹.

Question: How did the “self-cleavage kobs at 2500 uM GlcN6P” value turn out when AUAAAAGCGCCAGAACUACAGAAAUGUAGUUGUCGAGGAGGAGGUUUAUCGAAUGUUGGGCGGAUGCCUCCAAA was run?
Answer: Its value is less than 1e-05 s⁻¹.

Question: For AUAAAAGAGCCAGAACUACAGAAAUGUAGCUGACGAGGAGGAGGUUUAUCGAAUUUUCGGCAGAUGCCUCCAAA, which “self-cleavage kobs at 2500 uM GlcN6P” value is on record?
Answer: The value was less than 1e-05 s⁻¹.

Question: Which “self-cleavage kobs at 2500 uM GlcN6P” value does the source give for AUAAAAGCGCCAGAACUACAGAAAUGUAGUUGACGAAGCGGAGGUUUAUCGAAUUUUCCGCGGAUGCCUCCAAA here?
Answer: The value was less than 1e-05 s⁻¹.

Question: Which “self-cleavage kobs at 2500 uM GlcN6P” value does the source give for AUAAAAGCGCUAGACCUACAGAAAUGUAGUUGACGAGGAGUAGGUUUAUCGAAUUUUCGUCGGAUGCCUCCAAA here?
Answer: Its value is less than 1e-05 s⁻¹.

Question: With AUAAAAGCGCCAAAACUACAGAAAUGUAGUUGACGAGGUGGAGGUUUAUCGAAUUUUCGGCGGUUGCCUCCAAA as the variant, how does the “self-cleavage kobs at 2500 uM GlcN6P” value read?
Answer: Its value is less than 1e-05 s⁻¹.

Question: For AUAAAAGCGCCAGAACUACAGAAAUGUAGUUGACGGGGAGGAGGUUUAUCGAAUUUUCGGGGGAUGGCGCAAAA, which “self-cleavage kobs at 2500 uM GlcN6P” value is on record?
Answer: The value was less than 1e-05 s⁻¹.

Question: For AUAAAAGCGCCAGCACUACAGAAAUGUAGUUGACGAGGAGGAGGUCUAUCGAAUUUUCGGCGGAUGCCUUCAAA, which “self-cleavage kobs at 2500 uM GlcN6P” value is on record?
Answer: The value was 0.000279 ± 5.2e-05 s⁻¹.

Question: With AUAAAAGCGCCAGAGCUACAGAAAUGUAGUUGACGAGGCGGAGGAUUAUCGAAUUCUCGGCGGAUGCCUCCAAA as the variant, how does the “self-cleavage kobs at 2500 uM GlcN6P” value read?
Answer: Its value is 0.000239 ± 5.6e-05 s⁻¹.

Question: For AUAAAGGCCCCAGAACUACAGAAAUGUAGUUGUCGAGGAGGAGGUUUAUCGAAUUUUCGGCGGAUGCCUUCAAA, which “self-cleavage kobs at 2500 uM GlcN6P” value is on record?
Answer: The value was less than 1e-05 s⁻¹.

Question: AUAAAAGCGCCAGAACUACAGAAAUGUAGUUGACGAGGAGGAGGUUUAUCGAAGUUCCGGCGGAUGCCUCCAAA was tested. Which “self-cleavage kobs at 2500 uM GlcN6P” value did it give?
Answer: Its value is 0.000126 ± 2.3e-05 s⁻¹.

Question: Which “self-cleavage kobs at 2500 uM GlcN6P” value does the source give for AUAAAAGCGCCUGAACUACAGAAAUGUAGUUGUCGAGGAGGAGGUUUAACGAAUUUUCGGCGGAUGCAUCCAAA here?
Answer: The value was less than 1e-05 s⁻¹.

Question: AUAAAAGCGCCAGAACUACAGAAAUGUAGUUGACGAGGUGGAGGUUUGUCGAAUUUUCGGCGGAUGCCUCUAAA was tested. Which “self-cleavage kobs at 2500 uM GlcN6P” value did it give?
Answer: Its value is 4.36e-05 ± 1.5e-05 s⁻¹.

Question: With AUAAAAGCGCCAGAACUACAGAAAUGUAGUUCACGAGGAGCACGUUUAUCGAAUUUUCGGAGGAUGCCUCCAAA as the variant, how does the “self-cleavage kobs at 2500 uM GlcN6P” value read?
Answer: The value was less than 1e-05 s⁻¹.

Question: With AUAAAACCGCCAGAACUACAGAAAUGUAUUUCGCGAGGAGGAGGUUUAUCGAAUUUUCGGCGGAUGCCUCCAAA as the variant, how does the “self-cleavage kobs at 2500 uM GlcN6P” value read?
Answer: The value was less than 1e-05 s⁻¹.

Question: AUAAAAGCGCCAGAUCUACAGAAAUGUAGUUGACGAGGAGGAGGUUUAUCGAAUGUUCGGCGGAUUCCUCCAAA was tested. Which “self-cleavage kobs at 2500 uM GlcN6P” value did it give?
Answer: The value was 7.43e-05 ± 1.6e-05 s⁻¹.

Question: How did the “self-cleavage kobs at 2500 uM GlcN6P” value turn out when AUAAAAGCUCCAGAACUACAGAAAUGUAGUUGACGGGGAGGAGGUUUAUCGAAUUUUCGGGGGAUGUCUCCAAA was run?
Answer: Its value is less than 1e-05 s⁻¹.

Variants of: B1
Experiment: self-cleavage kobs at 10000 uM GlcN6P; higher = faster cleavage; RNA array
Settings: with glucosamine-6-phosphate
Method in brief: as §1

Question: With AUAAAAGCGCCUGAACUACAGAAAUGUAGUUGACGAGGAGGAGGUUUAUCGAAAUUUUGGCGGAUGCCUCCAAA as the variant, how does the “self-cleavage kobs at 10000 uM GlcN6P” value read?
Answer: The value was 6.78e-05 ± 1.3e-05 s⁻¹.

Question: How did the “self-cleavage kobs at 10000 uM GlcN6P” value turn out when AUAAAAGCGCCAGCACUACAGAAAUGUAGUUGACGAGGAGGAGGUCUAUCGAAUUUUCGGCGGAUGCCUUCAAA was run?
Answer: The value was 0.000482 ± 9.4e-05 s⁻¹.

Question: With AUAAAAGCGCCUGAACUACAGAAAUGUAGUUGUCGAGGAGGAGGUUUAACGAAUUUUCGGCGGAUGCAUCCAAA as the variant, how does the “self-cleavage kobs at 10000 uM GlcN6P” value read?
Answer: Its value is less than 1e-05 s⁻¹.
